The text below walks through data of patent US20250283065A1, “TRUNCATED POLYPEPTIDES HAVING PROTEIN LIGASE ACTIVITY AND METHODS OF PRODUCTION THEREOF” (NANYANG TECHNOLOGICAL UNIVERSITY, priority 2022, published 2025).

Data set [1] deals with OaAEP1b-C247A-Δ351. Briefly: Active site titration by FRET ligation assay with covalent inhibitor. Type of data set: biochemical, Oldenlandia affinis. The following applies: enzyme 280 nM, 1 hour incubation. On the procedure:
Active site titration: The procedure described in reference was followed. The enzyme preparation was diluted to a concentration of 280 nM using a buffer containing 20 mM sodium phosphate at pH 6.5, 5 mM 2-Mercaptoethanol. Solutions containing serial twofold dilution of inhibitor YVAD-cmk were prepared in a black microtiter plate (Greiner Bio-One) using buffer as diluent. The enzyme was subsequently added to the wells containing the inhibitor to a final volume of 50 μL. The plate was incubated for 1 hour at room temperature before adding FRET peptides (PIE {EDANS} YNAL (SEQ ID NO:18) and GIK {DABSYL} SIP (SEQ ID NO: 19)), which were mixed at a molar ratio of 1:3 giving a final enzyme: substrate molar ratio of 1:200. The EDANS fluorescence signal was measured with an excitation wavelength of 336 nm and an emission wavelength of 490 nm. Relative fluorescence units (RFU) of quenched EDANS signal were plotted against time. The value of the initial velocity (Vi) was determined from the slope of the RFU (t) curve. The measured value of Vi was subsequently normalized by dividing with the initial rate obtained in the absence of inhibitor (control V0). The calculated Vi/V0 ratio was plotted against inhibitor concentrations, generating an inhibition curve. […]

Data set [2] addresses OaAEP1b-C247A-Δ351 with His-tag and TEV cleavage sequence (construct for recombinant expression) (Oldenlandia affinis). The experiment in a line: cell-based or functional assay.
In data set [3] the target is mixture of FRET peptides A: PIE{EDANS}YNAL and B: GIK{DABSYL}SIP at a molar ratio of 1:3.
Data set [4] relates to peptides PIE {EDANS} YNAL and GIK {DABSYL} SIP. Briefly: FRET ligation kinetics assay. Conditions: 50 nM enzyme, peptides A:B molar ratio 1:3. Type of data set: biochemical. On the procedure:
Kinetics assay: The kinetic properties of the peptide ligation of the constitutively active PAL were studied using a FRET assay. Two peptides synthesized by GenScript: PIE {EDANS} YNAL (SEQ ID NO:18) and GIK {DABSYL} SIP (SEQ ID NO:19) were mixed at a molar ratio of 1:3. Upon ligation, the peptide PIE {EDANS} YNGIK {DABSYL} SIP (SEQ ID NO: 20) is produced. 50 nM of PAL enzyme is mixed with various concentrations of the peptide mixture. The EDANS fluorescence signal was measured with an excitation wavelength of 336 nm and an emission wavelength of 490 nm. A reduction in EDANS fluorescence signal occurs upon ligation of the two peptides due to quenching by DABSYL. The variation in fluorescence signal for each substrate mixture concentration was measured after addition of the enzyme to initiate the reaction. The rate of decrease in fluorescence signal during the first 30 seconds after enzyme addition was plotted against the substrate concentration to obtain the Vmax, kcat and KM values for each enzyme.
Next, using a FRET ligation assay, the ligase activity of the truncated OaAEP1b-C247A-Δ351 was compared with its acid-activated zymogen counterpart. Briefly, 50 nM of either enzyme was added to a mixture of two peptides A: PIE (EDANS) YNAL (SEQ ID NO:18) and B: GIK (DABSYL) SIP (SEQ ID NO:19). These two peptides were mixed in a A:B molar ratio of 1:3. Upon ligation, the fluorescence signal emission of the EDANS moiety of A (λem=490 nm) becomes quenched by the DABSYL moiety of B. (FIG. 7A). This assay the ligation rate to be followed between both peptides in real-time, giving access to the kinetic parameters of the truncated enzyme.

On to ac-YVAD-cmk [reference compound], for which the “minimal concentration of inhibitor necessary for a complete inhibition of the ligation activity” value in data set [1] worked out at 150 nM.

On to YVAD (N-terminal acetyl; C-terminal chloromethylketone (cmk)) [Ac-YVAD-cmk], for which, in data set [2], the fraction of the measured protein concentration that is active and amenable to complete inhibition (active site titration) amounted to 53%; the minimal concentration of inhibitor necessary for a complete inhibition of the ligation activity (active site titration, enzyme at 280 nM) amounted to 150 nM.

B1: acid-activated OaAEP1b-C247A (protein)
chain: MVRYLAGAVLLLVVLSVAAAVSGARDGDYLHLPSEVSRFFRPQETNDDHGEDSVGTRWAVLIAGSKGYANYRHQAGVCHAYQILKRGGLKDENIVVFMYDDIAYNESNPRPGVIINSPHGSDVYAGVPKDYTGEEVNAKNFLAAILGNKSAITGGSGKVVDSGPNDHIFIYYTDHGAAGVIGMPSKPYLYADELNDALKKKHASGTYKSLVFYLEACESGSMFEGILPEDLNIYALTSTNTTESSWAYYCPAQENPPPPEYNVCLGDLFSVAWLEDSDVQNSWYETLNQQYHHVDKRISHASHATQYGNLKLGEEGLFVYMGSNPANDNYTSLDGNALTPSSIVVNQRDADLLHLWEKFRKAPEGSARKEEAQTQIFKAMSHRVHIDSSIKLIGKLLFGIEKCTEILNAVRPAGQPLVDDWACLRSLVGTFETHCGSLSEYGMRHTRTIANICNAGISEEQMAEAASQACASIP
Regarding B1, in data set [3], the Km (FRET ligation assay) came to 8.34 µM and the “Vmax (FRET ligation assay)” value came to 14.32 RFU/see.

B2: acid-activated OaAEP1b-C247A: full-length OaAEP1b-C247A proenzyme expressed in E. coli and activated at low pH according to reference [17] (protein, listed as Oldenlandia affinis)
chain: B1 chain
modifications: acid-activated
For B2, in data set [4], the Vmax is reported as 14.32 RFU/see.

B3: OaAEP1b-C247A-Δ351 with His-tag and TEV cleavage sequence (construct for recombinant expression) (protein)
chain: MHHHHHHSSGVDLGTENLYFQSVGTRWAVLIAGSKGYANYRHQAGVCHAYQILKRGGLKDENIVVFMYDDIAYNESNPRPGVIINSPHGSDVYAGVPKDYTGEEVNAKNFLAAILGNKSAITGGSGKVVDSGPNDHIFIYYTDHGAAGVIGMPSKPYLYADELNDALKKKHASGTYKSLVFYLEACESGSMFEGILPEDLNIYALTSTNTTESSWCYYCPAQENPPPPEYNVCLGDLFSVAWLEDSDVQNSWYETLNQQYHHVDKRISHASHATQYGNLKLGEEGLFVYMGSNPANDNYTSLDGNALTPSSIVVNQRDAD
As to B3, in data set [3], the “Km (FRET ligation assay)” value stood at 8.16 µM and the “Vmax (FRET ligation assay)” value is reported as 6.40 RFU/see.
